Measured values as given in patent publication US7687489B2, “Agent for treatment of cerebral ischemic diseases” (Ono Pharmaceutical Co., Ltd., priority 2001, dated 2010).

Tested on: thrombin-induced focal cerebral ischemic model
Test: Thrombin-induced focal cerebral ischemic model: survival and neurological symptom score
Format: in vivo, male Wistar rats
Method: Twenty male Wistar rats (8-weeks age) were used as one group. The rats were anesthetized with halothane, followed by incision and then subjected to carotid artery shunting. A polyethylene catheter containing thrombin (10 international units) was catheterized into the carotid artery, and […] of blood was sucked and reserved in the catheter for 10 minutes. Then, thrombus formed in the catheter was infused into the carotid artery together with thrombin (J. Cereb. Blood Flow Metab., 17, 123 (1997)).
The neurological symptoms of said rats were scored according to the method as described in Brain Res., 452, 323 (1988). The evaluation of score was carried out at 6 hours, 24 hours, 48 hours and 72 hours after infusion of thrombin, and the scores were accumulated. The survival period was determined by monitoring surviving or dead rats at intervals of one hour for the first 72 hours after the infusion of thrombin.
From forty minutes after thrombin infusion, t-PA (Activacin 100,000 international units, product of Kyowa Hakko Kogyo Co., Ltd.) was continuously administered in an amount of 33 μL/min to the anesthetized rats for 15 minutes. (R)-2-propyloctanoic acid (hereinafter referred to as compound A) in an amount of 10 mg/mL/kg was administered through tail vein of the rats three times at 6 hours, 24 hours and 48 hours after the infusion of thrombin.

[1] = accumulated score, rats surviving 72 h, average ± standard error

B1: t-PA: tissue plasminogen activator, thrombolytic agent (Activacin, product of Kyowa Hakko Kogyo Co., Ltd.) (protein, UniProt P00750 36-562, looked up)
Tissue-type plasminogen …: SYQVICRDEKTQMIYQQHQSWLRPVLRSNRVEYCWCNSGRAQCHSVPVKSCSEPRCFNGGTCQQALYFSDFVCQCPEGFAGKCCEIDTRATCYEDQGISYRGTWSTAESGAECTNWNSSALAQKPYSGRRPDAIRLGLGNHNYCRNPDRDSKPWCYVFKAGKYSSEFCSTPACSEGNSDCYFGNGSAYRGTHSLTESGASCLPWNSMILIGKVYTAQNPSAQALGLGKHNYCRNPDGDAKPWCHVLKNRRLTWEYCDVPSCSTCGLRQYSQPQFRIKGGLFADIASHPWQAAIFAKHRRSPGERFLCGGILISSCWILSAAHCFQERFPPHHLTVILGRTYRVVPGEEEQKFEVEKYIVHKEFDDDTYDNDIALLQLKSDSSRCAQESSVVRTVCLPPADLQLPDWTECELSGYGKHEALSPFYSERLKEAHVRLYPSSRCTSQHLLNRTVTDNMLCAGDTRSGGPQANLHDACQGDSGGPLVCLNDGRMTLVGIISWGLGCGQKDVPGVYTKVTNYLDWIRDNMRP
For B1, the “Survival rate after 72 hours” value (72 hours after thrombin infusion, 20 rats per group, * p<0.05 vs control (Log-rank test)) was 35.0%, the “No. of surviving rats” value (72 hours after thrombin infusion, 20 rats per group, t-PA infused from 40 min for 15 min, compound A 10 mg/mL/kg i.v. at 6, 24, 48 h) was 7 and the “Neurological symptom score, 0 to 6 hours” value [1] was 3.4 ± 0.2. The “Neurological symptom score, 0 to 24 hours” value [1] was 3.4 ± 0.2, the “Neurological symptom score, 0 to 48 hours” value [1] was 3.1 ± 0.3 and the “Neurological symptom score, 0 to 72 hours” value [1] was 3.0 ± 0.3.
